Data taken from patent publication US20250129166A1 (Five Prime, published 2025).
Each block holds one binder with its values, some of them ahead of it.

Columns and labels:
[1] = target: T1, monovalent hVISTA-ECD (amino acids 32-193 of SEQ ID NO: 1 with a 7xHis tail) (human, UniProt Q9H7M9 33-193); test: SPR, mAb on Protein A, 37C, pH 6.0
T1 construct: also called huVISTA-His; human VISTA-ECD
Experimental: (§1) Binding of several preparations of each of the '029 progeny clones and of the parent '029 antibodies, formatted as IgG1.3 antibodies, to human VISTA at pH 6.0 and 7.4 was measured by Surface plasmon resonance (SPR). SPR analysis was performed to measure koff and KD binding affinity measurements for VISTA Abs at acidic and neutral pHs using a Biacore® T100 instrument (GE Healthcare). Protein A (ThermoFisher Scientific catalog #21181) was diluted to 20 μg/ml in 10 mM sodium acetate pH 4.5 and immobilized onto flow cells of a CM5 biosensor following the manufacturer's amine coupling protocol (GE Healthcare), targeting 2,000 RU immobilization density of Protein A per flow cell. SPR experiments were conducted at 37° C. using PBST (137 mM sodium chloride, 2.7 mM potassium chloride, 10 mM phosphate buffer, 0.05% Tween® 20) running buffer at pH 7.4 and 6.0. Antibodies were diluted to 25 nM in PBST pH 7.4, and were captured across active biosensor flow cells at 5 ul/min for 60 seconds. A concentration series of 50-5 nM monovalent hVISTA-ECD (SEQ ID NO: 325) was prepared in pH 7.4 and 6.0 running buffers, and was injected over the captured antibodies at 40 ul/min to measure association and dissociation. Two 15 second injections of 10 mM glycine pH 1.5 were used to regenerate the Protein A capture surface between assay cycles. Rate constants ka (kₒₙ) and kd (koff) were derived from reference flow cell and 0 nM blank-subtracted sensorgrams, and were fit to a 1:1 binding model in Biacore® T200 Evaluation Software v.2.0. The affinity constant, KD was calculated as the ratio of rate constants koff/kₒₙ for each VISTA antibody.

[2] = target: T1, monovalent hVISTA-ECD (amino acids …); test: SPR, mAb on Protein A, 37C, pH 7.4
Experimental: as §1

[3] = target: T1, monovalent hVISTA-ECD (amino acids …); test: SPR, mAb captured on Protein A, hVISTA-ECD analyte, 37 C, pH 6.0
Experimental: (§2) Binding kinetics were measured using a Biacore® T100 instrument (GE Healthcare). Protein A (ThermoFisher Scientific catalog #21181) was diluted to 20 μg/ml in 10 mM sodium acetate pH 4.5 and immobilized onto flow cells of a CM5 biosensor following the manufacturer's amine coupling protocol (GE Healthcare), targeting 2,000 RU immobilization density of Protein A per flow cell. The assay was conducted at 37° C. using PBST (137 mM sodium chloride, 2.7 mM potassium chloride, 10 mM phosphate buffer, 0.05% Tween 20) running buffer at pH 7.4, 6.7 and 6.0. Antibodies were diluted to 25 nM in PBST pH 7.4, and were captured across active biosensor flow cells at 5 ul/min for 40 seconds. A concentration series of 100-10 nM monovalent hVISTA-ECD (SEQ ID NO: 325) was prepared in pH 7.4, 6.7 and 6.0 running buffers, and was injected over the captured antibodies at 40 ul/min to measure association and dissociation. Two 15 second injections of 10 mM glycine pH 1.5 were used to regenerate the Protein A capture surface between assay cycles. Rate constants ka (kon) and kd (koff) were derived from reference flow cell and 0 nM blank-subtracted sensorgrams, and were fit to a 1:1 binding model in Biacore® T200 Evaluation Software v.2.0.
(§3) The affinity constant, KD was calculated as the ratio of rate constants koff/kₒₙ for each VISTA antibody. The % Rmax was calculated to compare how pH affects an antibody's binding capacity for VISTA, and represents the measured maximal VISTA binding response relative to the expected maximal VISTA binding response. The % Rmax is defined as the ratio of the reference-subtracted ‘binding’ report point response at the end of the 100 nM VISTA injection for each antibody (Rmax) relative to the expected VISTA binding response (Rexp). Rexp is calculated as Rexp=[(VISTA-ECD molecular weight/mAb molecular weight)×(mAb ‘capture’ report point response (RUs)]×2 binding sites per mAb.

[4] = target: T1, monovalent hVISTA-ECD (amino acids …); test: SPR, mAb captured on Protein A, hVISTA-ECD analyte, 37 C, pH 6.7
Experimental: as §2, §3

[5] = target: T1, monovalent hVISTA-ECD (amino acids …); test: SPR, mAb captured on Protein A, hVISTA-ECD analyte, 37 C, pH 6.0; remark: listed apart in the source
Experimental: as §2, §3

[6] = target: T1, monovalent hVISTA-ECD (amino acids …); test: SPR, mAb captured on Protein A, hVISTA-ECD analyte, 37 C, pH 6.7; remark: listed apart in the source
Experimental: as §2, §3

[7] = target: T2, hVISTA multimer: monobiotinylated hVISTA ECD (Phe 33-Ala 194, Accession #AAH20568, polyhistidine) loaded on … (human, UniProt Q9H7M9 33-194, limits assumed, monobiotinylated; loaded at a 28:1 molar ratio onto PE-conjugated streptavidin dextramers); test: blocking of VISTA multimer binding to activated human CD4+ T cells, flow cytometry, pH 6.0
T2 construct: also called hVISTA-loaded dextramers; recombinant VISTA multimer
T2 sequence (looked up): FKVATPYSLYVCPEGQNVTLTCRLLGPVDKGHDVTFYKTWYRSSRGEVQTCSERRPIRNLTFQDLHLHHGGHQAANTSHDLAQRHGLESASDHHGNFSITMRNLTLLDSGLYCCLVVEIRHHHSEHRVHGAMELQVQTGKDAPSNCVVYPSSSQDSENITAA
Experimental: As a control, activated CD4+ T cells were stained with PE-conjugated streptavidin dextramers that were not loaded with hVISTA. The stained cells were washed with HBSS+MES and acquired on a flow cytometer. Data were analyzed using FlowJo™ software (BD Biosciences). […] Left, from darker gray to lighter, the filled histograms depict binding at pH 7.0, 6.5, 6.4, 6.3, 6.1, and 6.0. Some histograms are labeled with their corresponding pH. Non-VISTA control multimer binding at pH 6.0 is shown as the unfilled histogram. Right, graphed PE mean fluorescence intensities (MFI) of CD4+ T cells stained with hVISTA-loaded dextramers (circles) or with non-loaded dextramers (triangles) at various pH.
This blocking assay was performed as described in Example 4.

[8] = target: T1, monovalent hVISTA-ECD (amino acids …); test: SPR, mAb captured on Protein A, hVISTA-ECD analyte, 37 C, pH 7.4
Experimental: as §2, §3

[9] = target: T3, human VISTA on cells (endogenous on human monocytes and AML3 cells; ectopic full-length on 293T cells) (human, UniProt Q9H7M9 33-311); test: cell-based or functional assay
T3 sequence (looked up): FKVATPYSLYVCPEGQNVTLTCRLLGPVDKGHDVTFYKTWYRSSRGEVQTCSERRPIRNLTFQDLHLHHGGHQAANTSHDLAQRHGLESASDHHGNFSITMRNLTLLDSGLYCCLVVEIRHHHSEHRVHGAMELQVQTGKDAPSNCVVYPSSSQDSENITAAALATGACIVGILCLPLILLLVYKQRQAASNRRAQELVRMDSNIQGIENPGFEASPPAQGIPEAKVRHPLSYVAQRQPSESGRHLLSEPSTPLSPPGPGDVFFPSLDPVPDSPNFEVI

[10] = target: T4, full length human PSGL-1 (SEQ ID NO: 3) expressed on heparan sulfate-mutant CHO cells (human, UniProt Q14242 42-412); test: VISTA-Fc binding to CHO-PSGL-1 cells at pH 6.0
T4 construct: also called CHO-PSGL-1 cells
T4 sequence: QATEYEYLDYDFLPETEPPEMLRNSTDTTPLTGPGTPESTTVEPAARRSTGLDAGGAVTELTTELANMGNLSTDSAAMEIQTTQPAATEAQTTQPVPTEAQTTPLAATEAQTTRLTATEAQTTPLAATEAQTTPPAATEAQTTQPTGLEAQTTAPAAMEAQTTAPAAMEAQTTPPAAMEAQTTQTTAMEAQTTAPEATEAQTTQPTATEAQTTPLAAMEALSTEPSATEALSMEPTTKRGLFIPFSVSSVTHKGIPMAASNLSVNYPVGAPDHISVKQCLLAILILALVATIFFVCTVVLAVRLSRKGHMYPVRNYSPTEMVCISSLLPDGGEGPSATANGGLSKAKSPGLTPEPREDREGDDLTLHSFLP

Kd [1]: 7.4 nM
kon [1]: 780000 M⁻¹ s⁻¹
Kd [2]: 36 nM
kon [2]: 180000 M⁻¹ s⁻¹
koff [3]: 0.0082 s⁻¹
koff [4]: 0.0044 s⁻¹
koff [5]: 0.0082 s⁻¹
koff [6]: 0.0044 s⁻¹
IC50 (read off the curve) [7]: ~0.05 µg/mL
B1: P1-061029.IgG1.3 (antibody)
heavy: EVQLVESGGGLVQPGKSLRLSCAASGFTLDDYAMHWVRQAPGKGLEWVSGINWNSANIGYADSVKGRFTISRDNAKNSLYLQMNSLRTEDTALYYCAKVPGYSGGWIDAFDVWGQGTMVTVSSASTKGPSVFPLAPSSKSTSGGTAALGCLVKDYFPEPVTVSWNSGALTSGVHTFPAVLQSSGLYSLSSVVTVPSSSLGTQTYICNVNHKPSNTKVDKRVEPKSCDKTHTCPPCPAPEAEGAPSVFLFPPKPKDTLMISRTPEVTCVVVDVSHEDPEVKFNWYVDGVEVHNAKTKPREEQYNSTYRVVSVLTVLHQDWLNGKEYKCKVSNKALPAPIEKTISKAKGQPREPQVYTLPPSREEMTKNQVSLTCLVKGFYPSDIAVEWESNGQPENNYKTTPPVLDSDGSFFLYSKLTVDKSRWQQGNVFSCSVMHEALHNHYTQKSLSLSPG
light: not shown
notes: IgG1.3 = effectorless IgG1 (L234A, L235E, G237A); also called P1-061029 (parent); P1-061029 hIgG1.3f

koff [8]: 0.0083 s⁻¹
koff [5]: 0.0082 s⁻¹
koff [6]: 0.0047 s⁻¹
B2: P1-068767_E100fF_D102V (antibody, human IgG1, kappa, V domains shown)
VH: EVQLVESGGGLVQPGKSLRLSCAASGFTLEDYAMHWVRQAPGKGLEWVSGIDWNSENIGYADSVKGRFTISRDNAKNSLYLQMNSLRTEDTALYYCAKVPGYSGGWIDAFDVWGQGTMVTVSS
VL: not shown
notes: also called P1-070920

koff [8]: 0.01 s⁻¹
koff [5]: 0.002 s⁻¹
koff [6]: 0.0031 s⁻¹
B3: P1-068767_E55A_D102V (antibody, human IgG1, kappa, V domains shown)
VH: EVQLVESGGGLVQPGKSLRLSCAASGFTLEDYAMHWVRQAPGKGLEWVSGIDWNSANIGYADSVKGRFTISRDNAKNSLYLQMNSLRTEDTALYYCAKVPGYSGGWIDAEDVWGQGTMVTVSS
VL: not shown
notes: also called P1-070932

koff [8]: 0.011 s⁻¹
koff [5]: 0.003 s⁻¹
koff [6]: 0.0035 s⁻¹
B4: P1-068767_E30D_D102V (antibody, human IgG1, kappa, V domains shown)
VH: EVQLVESGGGLVQPGKSLRLSCAASGFTLDDYAMHWVRQAPGKGLEWVSGIDWNSENIGYADSVKGRFTISRDNAKNSLYLQMNSLRTEDTALYYCAKVPGYSGGWIDAEDVWGQGTMVTVSS
VL: not shown
notes: also called P1-070926

Kd [1]: 5.5 nM
kon [1]: 280000 M⁻¹ s⁻¹
koff [4]: 0.0066 s⁻¹
IC50 (read off the curve) [7]: ~0.03 µg/mL
B5: P1-068761.IgG1.3 (antibody)
heavy: EVQLVESGGGLVQPGKSLRLSCAASGFTLEDEAMHWVRQAPGKGLEWVSGINWNSEEIGYADSVKGRFTISRDNAKNSLYLQMNSLRTEDTALYYCAKVPGYSHGWIDAEDVWGQGTMVTVSSASTKGPSVFPLAPSSKSTSGGTAALGCLVKDYFPEPVTVSWNSGALTSGVHTFPAVLQSSGLYSLSSVVTVPSSSLGTQTYICNVNHKPSNTKVDKRVEPKSCDKTHTCPPCPAPEAEGAPSVFLFPPKPKDTLMISRTPEVTCVVVDVSHEDPEVKFNWYVDGVEVHNAKTKPREEQYNSTYRVVSVLTVLHQDWLNGKEYKCKVSNKALPAPIEKTISKAKGQPREPQVYTLPPSREEMTKNQVSLTCLVKGFYPSDIAVEWESNGQPENNYKTTPPVLDSDGSFFLYSKLTVDKSRWQQGNVFSCSVMHEALHNHYTQKSLSLSPG
light: not shown
notes: IgG1.3; also called P1-068761 hIgG1.3f; P1-0687617

B6: VISTA.5 (mAb1) (antibody, V domains shown)
VH: AVQLQESGPGLVRPSQSLSLTCTVTDYSITSDYAWNWIRQFPGSKLEWLGFIGYSGNTNYNPSLESRISITRHTSKNQFFLHLNSMTTEDTATYYCARSLYGGSHWYFDVWGAGTTVTVSS
VL: DIVLTQSPASLAVSLGQRATISCRGSESVEYYGTILMQWYQQKPGQPPKLLIYGASNVESGVPARFSGSGSGTDFSLNIHPVEEDDIAMYFCQQSRKVPWTFGGGTKLEIK
EC50 of AML3 cell viability (Cell Titer Glo), endolysosome-dependent secondary antibody drug conjugate killing assay [9]: 0.485 µg/mL

binding result [10]: binds
B7: H2R mutant (Fc fusion)
chain: FKVATPYSLYVCPEGQNVTLTCRLLGPVDKGHDVTFYKTWYRSSRGEVQTCSERRPIRNLTFQDLHLHHGGHQAANTSHDLAQRHGLESASDHHGNFSITMRNLTLLDSGLYCCLVVEIRRRRSEHRVHGAMELQVQTGKDAPSNCVVYPSSSQDSENITAA
notes: Produced by transient transfection of Expi293 cells; not shown: human IgG1 Fc part and any linker or tag of the VISTA-Fc construct
